Tests used:
[1] = target: T1, RPA-CDE-core (human, UniProt P27694;P15927;P35244 436-616;43-171;1-121); test: CD titration; 100 mM NaCl; unfolds G4, complete at protein:DNA 2; FP: 0.060 uM FAM-oligo, 10-1500 mM NaCl, room temperature; CD: Buffer A 25 mM Tris pH 7.5, 2 mM MgCl2, 6% glycerol, 1 mM DTT, 100 (or 10) mM NaCl, room temperature; details: protein: recombinant; tags: N-terminal His, thrombin-cleaved; copies: 1;1;1; intramolecular G4
[2] = target: T2, RPA-C (human, UniProt P27694 432-595, V435T;W442Q;V465T;V469T;F523S;F567S;I571T); test: CD titration; 10 mM NaCl; 254 nm peak decreases, 292 nm unchanged; FP: 0.060 uM FAM-oligo, 10-1500 mM NaCl, room temperature; CD: Buffer A 25 mM Tris pH 7.5, 2 mM MgCl2, 6% glycerol, 1 mM DTT, 100 (or 10) mM NaCl, room temperature; details: protein: recombinant; tags: N-terminal His, thrombin-cleaved; intramolecular G4
T2 sequence (P27694 432-595 V435T/W442Q/V465T/V469T/F523S/F567S/I571T): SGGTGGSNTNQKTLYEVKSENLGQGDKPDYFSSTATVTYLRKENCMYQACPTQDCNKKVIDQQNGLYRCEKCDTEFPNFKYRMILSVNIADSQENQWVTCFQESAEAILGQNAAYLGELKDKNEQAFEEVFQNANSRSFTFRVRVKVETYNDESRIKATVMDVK

[3] = target: T3, RPA-DE (human, UniProt P15927;P35244 43-171;1-121); test: CD titration; 10 mM NaCl; stabilizes antiparallel G4; FP: 0.060 uM FAM-oligo, 10-1500 mM NaCl, room temperature; CD: Buffer A 25 mM Tris pH 7.5, 2 mM MgCl2, 6% glycerol, 1 mM DTT, 100 (or 10) mM NaCl, room temperature; details: protein: recombinant; tags: N-terminal His, thrombin-cleaved; copies: 1;1; intramolecular G4
T3 sequence (P15927 43-171, chain 1 of 2): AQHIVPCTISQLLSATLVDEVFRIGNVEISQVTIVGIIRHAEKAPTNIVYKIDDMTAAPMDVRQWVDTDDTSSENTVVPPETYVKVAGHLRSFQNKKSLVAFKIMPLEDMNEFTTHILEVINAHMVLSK
T3 sequence (P35244 whole entry, chain 2 of 2): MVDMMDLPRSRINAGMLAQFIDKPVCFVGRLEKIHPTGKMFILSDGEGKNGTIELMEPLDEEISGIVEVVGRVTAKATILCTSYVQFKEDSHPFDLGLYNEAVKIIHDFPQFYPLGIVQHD

[4] = target: T1, RPA-CDE-core; test: FP; 10 mM NaCl; FP: 0.060 uM FAM-oligo, 10-1500 mM NaCl, room temperature; CD: Buffer A 25 mM Tris pH 7.5, 2 mM MgCl2, 6% glycerol, 1 mM DTT, 100 (or 10) mM NaCl, room temperature; parameters: unit not given here; details: protein: recombinant, tags: N-terminal His, thrombin-cleaved, copies: 1;1;1, label: 5' 6-FAM
[5] = target: T2, RPA-C; test: as above; details: protein: recombinant; tags: N-terminal His, thrombin-cleaved; label: 5' 6-FAM
[6] = target: T3, RPA-DE; test: as above; details: protein: recombinant; tags: N-terminal His, thrombin-cleaved; copies: 1;1; label: 5' 6-FAM
[7] = target: T4, RPA (full-length heterotrimer RPA1/RPA2/RPA3) (human, UniProt P27694;P15927;P35244 1-616;1-270;1-121); test: FP; 500 mM NaCl; FP: 0.060 uM FAM-oligo, 10-1500 mM NaCl, room temperature; CD: Buffer A 25 mM Tris pH 7.5, 2 mM MgCl2, 6% glycerol, 1 mM DTT, 100 (or 10) mM NaCl, room temperature; details: protein: recombinant; copies: 1;1;1; label: 5' 6-FAM
T4 sequence (P27694 whole entry, chain 1 of 3): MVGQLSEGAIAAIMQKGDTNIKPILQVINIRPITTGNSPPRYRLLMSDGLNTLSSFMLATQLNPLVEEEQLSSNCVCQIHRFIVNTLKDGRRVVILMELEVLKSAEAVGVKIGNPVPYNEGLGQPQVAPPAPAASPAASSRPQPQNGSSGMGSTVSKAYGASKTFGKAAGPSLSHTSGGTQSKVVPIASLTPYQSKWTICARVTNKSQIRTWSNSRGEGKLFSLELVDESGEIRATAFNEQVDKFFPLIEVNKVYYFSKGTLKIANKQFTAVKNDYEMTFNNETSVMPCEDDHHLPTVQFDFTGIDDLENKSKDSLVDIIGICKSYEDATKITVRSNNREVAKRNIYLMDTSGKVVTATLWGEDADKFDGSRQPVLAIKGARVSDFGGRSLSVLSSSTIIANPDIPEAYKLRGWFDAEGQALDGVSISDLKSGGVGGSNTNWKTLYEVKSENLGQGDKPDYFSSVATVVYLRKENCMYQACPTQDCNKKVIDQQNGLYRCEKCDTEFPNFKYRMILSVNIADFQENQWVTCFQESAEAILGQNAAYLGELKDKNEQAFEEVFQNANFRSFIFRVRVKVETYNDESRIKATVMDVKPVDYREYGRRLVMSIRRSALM
T4 sequence (P15927 whole entry, chain 2 of 3): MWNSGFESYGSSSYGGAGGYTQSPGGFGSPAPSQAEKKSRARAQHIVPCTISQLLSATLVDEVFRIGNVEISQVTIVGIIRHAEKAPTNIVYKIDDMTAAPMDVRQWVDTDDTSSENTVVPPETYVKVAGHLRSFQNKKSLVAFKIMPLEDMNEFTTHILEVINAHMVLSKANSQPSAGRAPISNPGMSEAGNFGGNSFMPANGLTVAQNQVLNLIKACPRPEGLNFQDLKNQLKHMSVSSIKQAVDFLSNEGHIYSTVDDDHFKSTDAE
T4 sequence (P35244 whole entry, chain 3 of 3): as the sequence (P35244 whole entry, chain 2 of 2) above

[8] = target: T1, RPA-CDE-core; test: FP; 100 mM NaCl; FP: 0.060 uM FAM-oligo, 10-1500 mM NaCl, room temperature; CD: Buffer A 25 mM Tris pH 7.5, 2 mM MgCl2, 6% glycerol, 1 mM DTT, 100 (or 10) mM NaCl, room temperature; parameters: unit not given here; details: protein: recombinant, tags: N-terminal His, thrombin-cleaved, copies: 1;1;1, label: 5' 6-FAM
[9] = target: T5, RPA-AB (human, UniProt P27694 181-441); test: as above; parameters: unit not given here; details: protein: recombinant, tags: N-terminal His6, thrombin-cleaved, label: 5' 6-FAM
T5 sequence (P27694 181-441): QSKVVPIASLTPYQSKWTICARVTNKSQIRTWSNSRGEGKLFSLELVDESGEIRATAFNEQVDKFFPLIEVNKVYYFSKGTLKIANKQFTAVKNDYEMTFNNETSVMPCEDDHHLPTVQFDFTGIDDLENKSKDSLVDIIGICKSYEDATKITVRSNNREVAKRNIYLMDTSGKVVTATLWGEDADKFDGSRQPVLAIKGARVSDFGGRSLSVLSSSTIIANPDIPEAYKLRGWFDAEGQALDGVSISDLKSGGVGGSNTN

[10] = target: T1, RPA-CDE-core; test: competition; FP, 0-10 uM unlabeled vs 60 nM FAM-Comp; FP: 0.060 uM FAM-oligo, 10-1500 mM NaCl, room temperature; CD: Buffer A 25 mM Tris pH 7.5, 2 mM MgCl2, 6% glycerol, 1 mM DTT, 100 (or 10) mM NaCl, room temperature; details: protein: recombinant; tags: N-terminal His, thrombin-cleaved; copies: 1;1;1
[11] = target: T4, RPA (full-length heterotrimer …); test: as above; details: protein: recombinant; copies: 1;1;1
[12] = target: T2, RPA-C; test: FP; 10 mM NaCl; FP: 0.060 uM FAM-oligo, 10-1500 mM NaCl, room temperature; CD: Buffer A 25 mM Tris pH 7.5, 2 mM MgCl2, 6% glycerol, 1 mM DTT, 100 (or 10) mM NaCl, room temperature; parameters: unit not given here; details: protein: recombinant, tags: N-terminal His, thrombin-cleaved, label: 5' 6-FAM
[13] = target: T3, RPA-DE; test: as above; parameters: unit not given here; details: protein: recombinant; tags: N-terminal His, thrombin-cleaved; copies: 1;1; label: 5' 6-FAM; intramolecular G4, antiparallel at 100 mM NaCl, mixed/parallel at 10 mM NaCl
[14] = target: T1, RPA-CDE-core; test: FP; 500 mM NaCl; FP: 0.060 uM FAM-oligo, 10-1500 mM NaCl, room temperature; CD: Buffer A 25 mM Tris pH 7.5, 2 mM MgCl2, 6% glycerol, 1 mM DTT, 100 (or 10) mM NaCl, room temperature; details: protein: recombinant, tags: N-terminal His, thrombin-cleaved, copies: 1;1;1, label: 5' 6-FAM
[15] = target: T5, RPA-AB; test: as above; details: protein: recombinant, tags: N-terminal His6, thrombin-cleaved, label: 5' 6-FAM
[16] = target: T4, RPA (full-length heterotrimer …); test: FP; 1500 mM NaCl; FP: 0.060 uM FAM-oligo, 10-1500 mM NaCl, room temperature; CD: Buffer A 25 mM Tris pH 7.5, 2 mM MgCl2, 6% glycerol, 1 mM DTT, 100 (or 10) mM NaCl, room temperature; parameters: unit not given here; details: protein: recombinant; copies: 1;1;1; label: 5' 6-FAM; intramolecular G4, antiparallel at 100 mM NaCl, mixed/parallel at 10 mM NaCl
[17] = target: T4, RPA (full-length heterotrimer …); test: FP; 500 mM NaCl; stoichiometric (equilibrium only at 1250 mM); FP: 0.060 uM FAM-oligo, 10-1500 mM NaCl, room temperature; CD: Buffer A 25 mM Tris pH 7.5, 2 mM MgCl2, 6% glycerol, 1 mM DTT, 100 (or 10) mM NaCl, room temperature; details: protein: recombinant; copies: 1;1;1; label: 5' 6-FAM; intramolecular G4, antiparallel at 100 mM NaCl, mixed/parallel at 10 mM NaCl
[18] = target: T4, RPA (full-length heterotrimer …); test: FP; 1250 mM NaCl; FP: 0.060 uM FAM-oligo, 10-1500 mM NaCl, room temperature; CD: Buffer A 25 mM Tris pH 7.5, 2 mM MgCl2, 6% glycerol, 1 mM DTT, 100 (or 10) mM NaCl, room temperature; parameters: unit not given here; details: protein: recombinant; copies: 1;1;1; label: 5' 6-FAM; intramolecular G4, antiparallel at 100 mM NaCl, mixed/parallel at 10 mM NaCl
[19] = target: T5, RPA-AB; test: FP; 1500 mM NaCl; FP: 0.060 uM FAM-oligo, 10-1500 mM NaCl, room temperature; CD: Buffer A 25 mM Tris pH 7.5, 2 mM MgCl2, 6% glycerol, 1 mM DTT, 100 (or 10) mM NaCl, room temperature; parameters: unit not given here; details: protein: recombinant; tags: N-terminal His6, thrombin-cleaved; label: 5' 6-FAM
[20] = target: T4, RPA (full-length heterotrimer …); test: FP; 500 mM NaCl; stoichiometric; FP: 0.060 uM FAM-oligo, 10-1500 mM NaCl, room temperature; CD: Buffer A 25 mM Tris pH 7.5, 2 mM MgCl2, 6% glycerol, 1 mM DTT, 100 (or 10) mM NaCl, room temperature; parameters: unit not given here; details: protein: recombinant; copies: 1;1;1; label: 5' 6-FAM
[21] = target: T1, RPA-CDE-core; test: FP; 1250 mM NaCl; FP: 0.060 uM FAM-oligo, 10-1500 mM NaCl, room temperature; CD: Buffer A 25 mM Tris pH 7.5, 2 mM MgCl2, 6% glycerol, 1 mM DTT, 100 (or 10) mM NaCl, room temperature; parameters: unit not given here; details: protein: recombinant; tags: N-terminal His, thrombin-cleaved; copies: 1;1;1; label: 5' 6-FAM
[22] = target: T5, RPA-AB; test: as above; parameters: unit not given here; details: protein: recombinant; tags: N-terminal His6, thrombin-cleaved; label: 5' 6-FAM
[23] = intramolecular G4, antiparallel at 100 mM NaCl, mixed/parallel at 10 mM NaCl

T1 sequence (P27694 436-616, chain 1 of 3): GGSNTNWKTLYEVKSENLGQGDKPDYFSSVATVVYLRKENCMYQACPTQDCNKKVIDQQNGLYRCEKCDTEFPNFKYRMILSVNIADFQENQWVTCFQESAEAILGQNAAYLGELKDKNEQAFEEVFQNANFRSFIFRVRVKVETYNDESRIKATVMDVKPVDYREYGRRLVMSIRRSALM
T1 sequence (P15927 43-171, chain 2 of 3): as the sequence (P15927 43-171, chain 1 of 2) above
T1 sequence (P35244 whole entry, chain 3 of 3): as the sequence (P35244 whole entry, chain 2 of 2) above

TAGGGGAAGGGTTGGAGTGGGTT (structured_DNA) [Gq23 (CD, unlabeled)]
binding result [1]: binds | binding result [2]: binds | binding result [3]: binds

AAAAAAAAAAAAAAAAAAAAAAA (ssDNA, 18-carbon spacer (sp18) at 5' end) [polyA]
Kd [4]: 0.53 | binding result [5]: no binding | binding result [6]: no binding | Kd [7]: 0.17 | Kd [8]: 5.88 | Kd [9]: 1.83

ATCCCCTTCCCAACCTCACCCAA (ssDNA) [Comp competitor (unlabeled)]
binding result [10]: binds | binding result [11]: binds

TAGGGGAAGGGTTGGAGTGGGTT (structured_DNA, 18-carbon spacer (sp18) at 5' end) [Gq23 (FP)]
Kd [4, 23]: 0.16 | Kd [12, 23]: 3.62 | Kd [13]: 6.68 | Kd [14, 23]: 11.9 µM | Kd [15, 23]: 3.28 | Kd [8, 23]: 0.55 | Kd [9, 23]: 0.44 | Kd [16]: 0.85 | Kd [17]: ~0.04 0.02 | Kd [18]: 0.37

ATCCCCTTCCCAACCTCACCCAA (ssDNA, 18-carbon spacer (sp18) at 5' end) [Anti (Comp)]
Kd [4]: 0.22 | Kd [12]: 3.32 | binding result [6]: no binding | Kd [14]: 0.75 | Kd [15]: 1.79 | Kd [8]: 0.42 | Kd [9]: 0.66 | Kd [19]: 2.45 | Kd [20]: ~0.06 | Kd [21]: 2.81 | Kd [22]: 2.65
